Read-outs that look alike come from different tables or passages of the source.
How the values were obtained:
[1] = biological target: biotinylated avi-tagged TβRII (UniProt P37173); test: SPR; biotinylated avi-tagged TβRII captured at 50-150 RU on neutravidin-coated CM-5 chip; WT TGM-D3 or TGM-D3 variants injected in 25 mM Hepes, pH 7.4, 150 mM NaCl, 0.05% P20, 100 μl/min; 1:1 fit of duplicate or triplicate injection series
[2] = biological target: biotinylated avi-tagged TβRII (UniProt P37173); test: as above; remark: listed apart in the source
[3] = biological target: biotinylated avi-tagged TGM-D3 (Heligmosomoides polygyrus); test: SPR; biotinylated avi-tagged TGM-D3 captured at 50-150 RU on neutravidin-coated CM-5 chip; TβRII variants injected in 25 mM Hepes, pH 7.4, 150 mM NaCl, 0.05% P20, 100 μl/min; 1:1 fit of duplicate or triplicate injection series
[4] = biological target: biotinylated avi-tagged TβRII (UniProt P37173)
[5] = biological target: TβRII ectodomain (UniProt P37173); test: ITC; TGM construct titrated into TβRII in the cell; 25 mM sodium phosphate, 50 mM NaCl, pH 6.0, 35 °C; 1:1 model
[6] = biological target: biotinylated avi-tagged TβRI (UniProt P36897); test: SPR; BIAcore X100; biotinylated avi-tagged TβRI or TβRII captured on neutravidin-coated CM-5 chip (results say streptavidin) at 50-150 RU; TGM constructs injected as 2-fold dilution series in 25 mM Hepes, pH 7.4, 150 mM NaCl, 0.005% P20, 100 μl/min; 1:1 kinetic fit of a single injection series
[7] = biological target: biotinylated avi-tagged TβRII (UniProt P37173); test: as above
[8] = biological target: TβRI ectodomain (UniProt P36897); test: ITC; TGM construct titrated into TβRI in the cell; 25 mM Hepes, 50 mM NaCl, 0.05% NaN3, pH 7.5, 25 °C; 1:1 model
[9] = biological target: TβRII ectodomain (UniProt P37173); test: ITC; TGM construct in the syringe (300-320 µM), 15 µM TβRII in the cell; 25 mM sodium phosphate, 50 mM NaCl, pH 6.0, 35 °C; 1:1 model (Nitpic, Sedphat)
[10] = biological target: TβRI ectodomain (UniProt P36897); test: ITC; TGM construct in the syringe (58-150 µM), 7.5 µM TβRI in the cell; 25 mM Hepes, 50 mM NaCl, 0.05% NaN3, pH 7.5, 25 °C; 1:1 model (Nitpic, Sedphat)
[11] = biological target: TβRII ectodomain (UniProt P37173); test: ITC; competition: 150 μM mmTGF-β27M injected into 15 μM TβRII with 0, 6.0 or 12.0 μM TGM-D3; 25 mM sodium phosphate, 50 mM NaCl, pH 6.0, 35 °C; global fit of the three datasets to a 1:1 model with competition
[12] = biological target: TβRI ectodomain (UniProt P36897); test: ITC; TGF-β3(TβRII)2 complex titrated into TβRI; 25 mM Hepes, 50 mM NaCl, 0.05% NaN3, pH 7.5, 30 °C

Substance: TGM-D3 R198A (domain or fragment)
- fold increase of KD against WT [1]: > 30 fold
- fold increase of KD against WT [2]: > 20 fold

Substance: TβRII I76A (from UniProt P37173 23-166) (receptor)
- fold increase of KD against WT [3]: 26 fold

Substance: TβRII I73A (from UniProt P37173 23-166) (receptor)
- fold increase of KD against WT [3]: 7 fold

Substance: TGM D13 Y252A (domain or fragment)
- EC50 of signaling, MFB-F11 TGF-β reporter bioassay [4]: 7 ng/mL

Substance: TβRII E142Q (from UniProt P37173 23-166) (receptor)
- fold increase of KD against WT [3]: 17 fold

Substance: TGM D13 I256A (domain or fragment)
- EC50 of signaling, MFB-F11 TGF-β reporter bioassay [4]: 4.5 ng/mL

Substance: full-length TGM (TGF-β mimic) (natural protein)
- stoichiometry N [5]: 1
- Kd [6]: 13 nM
- koff [6]: 0.00078 s⁻¹
- kon [6]: 59000 M⁻¹ s⁻¹
- Kd [7]: 610 nM
- koff [7]: 0.1 s⁻¹
- kon [7]: 2e+07 M⁻¹ s⁻¹
- stoichiometry N [8]: 1

Substance: TGM-D3 I238A (domain or fragment)
- fold increase of KD against WT [2]: > 20 fold

Substance: TβRII S75L (from UniProt P37173 23-166) (receptor)
- fold increase of KD against WT [3]: 200 fold

Substance: TGM-FL (natural protein)
- Kd [9]: 550 nM
- stoichiometry N [9]: 0.84
- Kd [10]: 52 nM
- stoichiometry N [10]: 0.96

Substance: mmTGF-β27M, engineered TGF-β monomer (from UniProt P61812) (ligand)
- Kd [11]: 35 nM

Substance: TGM D13 (TGM D1-D3), wild type (domain or fragment)
- EC50 of signaling, MFB-F11 TGF-β reporter bioassay [4]: 3.9 ng/mL

Substance: TGM-D12 (domain or fragment)
- stoichiometry N [10]: 1.2

Substance: TGM-D3 K254A (domain or fragment)
- fold increase of KD against WT [1]: > 30 fold
- fold increase of KD against WT [2]: > 20 fold

Substance: TGM-D3 V236A (domain or fragment)
- fold increase of KD against WT [2]: 4 fold

Substance: TGM-D2 (domain or fragment)
- Kd [10]: 1500 nM
- stoichiometry N [10]: 0.54

Substance: TGM-D3 F235A (domain or fragment)
- fold increase of KD against WT [2]: 4 fold

Substance: TGM D13 I238A (domain or fragment)
- EC50 of signaling, MFB-F11 TGF-β reporter bioassay [4]: 9.7 ng/mL

Substance: TGM-D3 Y252A (domain or fragment)
- fold increase of KD against WT [2]: > 20 fold

Substance: TGM-D3 (domain or fragment)
- stoichiometry N [5]: 1
- Kd [7]: 910 nM
- koff [7]: 0.6 s⁻¹
- kon [7]: 600000 M⁻¹ s⁻¹

Substance: TGF-β3(TβRII)2 binary complex (from UniProt P37173 23-166)
- Kd [12]: 61 nM
- dH [12]: -4.2 kcal/mol

— article PMC9163516
